# In patent US20240270801A1, “EPITOPE PEPTIDE OF HUMAN ALPHA-SYNUCLEIN AND PHARMACEUTICAL COMPOSITION INCLUDING SAID PEPTIDE” (Sumitomo Pharma Co., Ltd., priority 2021, published 2024):
# No end group written: not given here. KLH = keyhole limpet hemocyanin
# Experiments:
# aggregated human αSyn [1] = assay: Antibody-inducing ability in cynomolgus monkeys: ELISA antibody titer with respect to aggregated human αSyn; type: in vivo; conditions: i.m. three times at 2-week interval, Alum; AJ conjugates 2,000 μg/monkey, KLH-DMPVDPDN 75 μg/monkey; FIG. 4B
# Protocol: The antibody-inducing ability of the AJ-human αSyn peptide conjugate with respect to human αSyn and aggregated human αSyn in cynomolgus monkeys was evaluated. The AJ-human αSyn peptide conjugates (AJ-p54, AJ-p150, AJ-p283, AJ-p142, and AJ-p273) (2,000 μg/monkey) and KLH-DMPVDPDN (75 μg/monkey) were intramuscularly administered to cynomolgus monkeys (males, 3 to 7 years old, SNBL, Ltd.) three times at a 2-week interval using Alum (InvivoGen, 200 μg/monkey) as an adjuvant. Blood was collected before administration and 4, 6, 8, and 10 weeks after the first administration to recover the serum. ELISA was performed by the following method.
# 96-well plates were coated with human αSyn (Sigma-Aldrich) or aggregated human αSyn (StressMarq Biosciences Inc.) at 0.2 μg/well or 15 ng/well. After washing with PBST once, blocking was performed with 3% skim milk (FUJIFILM Wako Pure Chemical Corporation). After washing with PBST three times, diluted serum was added to cause a reaction at room temperature for 1 hour. Furthermore, after washing with PBST three times, Goat anti-Monkey IgG-HRP (Bio-Rad Laboratories, Inc.) was added to cause a reaction at room temperature for 1 hour. […] An equal volume of a TMB Stop Solution (KPL) was added to stop the reaction, and the absorbance at 450 nm was measured.
# aggregated human αSyn [2] = assay: Antibody-inducing ability in mice: ELISA antibody titer of immune serum with respect to aggregated human αSyn; type: in vivo, mouse
# Summary of the method: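 Female balb/c mice (6 weeks) immunized i.m. twice, 2 weeks apart, with conjugate (250 μg/mouse) or KLH-DMPVDPDN (25 μg/mouse) plus Alum (50 μg/mouse); serum taken 2 weeks after second dose. ELISA on plates coated with aggregated human αSyn (15 ng/well), anti-mouse IgG-HRP, TMB, A450; titers expressed relative to reference conjugate set to 1 (log).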
substance,measurement,setting,value
"KLH-C-DMPVDPDN ({KLH}-CDMPVDPDN) [KLH-DMPVDPDN, comparison vaccine, reference compound]",Induction of the antibody to aggregated human αSyn in cynomolgus monkeys,aggregated human αSyn [1],not induced
same,Antibody-inducing ability regarding the aggregated human αSyn (in words),"aggregated human αSyn [2]; Example 2, balb/c mice",very weak
same,"Antibody titer with respect to aggregated human αSyn (N = 4 − 6, mean ± standard deviation)","aggregated human αSyn [2]; Example 2, balb/c mice, i.m. twice at 2-week interval, Alum, AJ conjugates 250 μg/mouse, KLH-DMPVDPDN 25 μg/mouse, serum 2 weeks after second administration",208 ± 205
same,Induction of the antibody to aggregated human αSyn (in words),"aggregated human αSyn [2]; Example 4, balb/c mice",did not induce the antibody to aggregated human αSyn
same,Antibody titer with respect to aggregated human αSyn (mean ± standard deviation),"aggregated human αSyn [2]; Example 4, balb/c mice, i.m. twice at 2-week interval, Alum, AJ conjugates 250 μg/mouse, KLH-DMPVDPDN 25 μg/mouse",36 ± 20
